Data: paper PMC3066550

Tests used:
Assay in all cases: co-IP
[1] = biological target: LANADBD WE963AA (Kaposi's sarcoma-associated herpesvirus (KSHV; human herpesvirus 8))
[2] = biological target: LANADBD YGL907AAA (Kaposi's sarcoma-associated herpesvirus (KSHV; human herpesvirus 8))
[3] = biological target: LANADBD R873A (Kaposi's sarcoma-associated herpesvirus (KSHV; human herpesvirus 8))
[4] = biological target: LANADBD YR879AA (Kaposi's sarcoma-associated herpesvirus (KSHV; human herpesvirus 8))
[5] = biological target: LANADBD K871A (Kaposi's sarcoma-associated herpesvirus (KSHV; human herpesvirus 8))
[6] = biological target: LANADBD SKK953AAA (Kaposi's sarcoma-associated herpesvirus (KSHV; human herpesvirus 8))
[7] = biological target: LANADBD LSQ912AAA (Kaposi's sarcoma-associated herpesvirus (KSHV; human herpesvirus 8))
[8] = biological target: LANADBD HIF876AAA (Kaposi's sarcoma-associated herpesvirus (KSHV; human herpesvirus 8))
[9] = biological target: LANADBD KDT950AAA (Kaposi's sarcoma-associated herpesvirus (KSHV; human herpesvirus 8))

“wild-type KSHV LANA DNA-binding domain (LANADBD, aa 775-1003) (domain or fragment)” was tested, and the dimerization activity by IP, percent of wt [1] was 29 % of wt, the dimerization activity by IP, percent of wt [2] was 73 % of wt and the dimerization activity by IP, percent of wt [3] was 135 % of wt. For the same substance, the dimerization activity by IP, percent of wt [4] was 73 % of wt, the dimerization activity by IP, percent of wt [5] was 74 % of wt and the dimerization activity by IP, percent of wt [6] was 64 % of wt. The dimerization activity by IP, percent of wt [7] was 248 % of wt, the dimerization activity by IP, percent of wt [8] was 127 % of wt and the dimerization activity by IP, percent of wt [9] was 74 % of wt.
